Data set [1] has as its target T1, PotD (wild type), spermidine-binding protein (E. coli K12, UniProt P0AFK9 24-348).
T1 construct: expressed from the entire potABCD operon; Hexahistidine tag is called noncleavable; also called PoD wild-type; source: E. coli C41, expressed from the potABCD operon with the tag on PotD; purified (Ni-NTA, Superose 6 SEC); in lysate for the co-purification attempt; not shown: His6, C-terminal, kept
T1 sequence (looked up): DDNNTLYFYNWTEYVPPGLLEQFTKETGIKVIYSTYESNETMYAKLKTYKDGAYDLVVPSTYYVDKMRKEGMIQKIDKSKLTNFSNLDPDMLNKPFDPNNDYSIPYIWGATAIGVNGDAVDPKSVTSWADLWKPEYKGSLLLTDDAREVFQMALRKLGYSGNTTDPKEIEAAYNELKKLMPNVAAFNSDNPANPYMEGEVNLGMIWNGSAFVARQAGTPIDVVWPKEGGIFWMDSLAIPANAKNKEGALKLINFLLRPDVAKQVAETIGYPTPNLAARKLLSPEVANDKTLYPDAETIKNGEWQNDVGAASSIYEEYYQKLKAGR
As to the kind of experiment: cryo-EM structure; PotD-PotABC E173Q complex formed with Spd, ATP and Mg2+, in LMNG; Spd-bound pretranslocation state (3.1 Å) and ATP-bound translocation intermediate state (3 Å; dataset 2 with 3 mM Fos-Choline-8). The conditions noted are these: both partners purified.

Data set [2] concerns the molecule itself. Briefly: cryo-EM structure; wild-type PotABC complex reconstituted into MSP1E3D1/asolectin nanodiscs, with ATP, Mg2+ and Spd; map at 3.5 Å.
Data set [3] concerns the molecule itself. Briefly: cryo-EM structure; PotD-PotABC E173Q complex formed with Spd, ATP and Mg2+, in LMNG; Spd-bound pretranslocation state (3.1 Å) and ATP-bound translocation intermediate state (3 Å; dataset 2 with 3 mM Fos-Choline-8).

Numbering of substitutions follows the chain as printed. Names may count otherwise.

B1: PotB (natural protein, E. coli K12, UniProt P0AFK4 1-275, looked up)
chain: MIVTIVGWLVLFVFLPNLMIIGTSFLTRDDASFVKMVFTLDNYTRLLDPLYFEVLLHSLNMALIATLACLVLGYPFAWFLAKLPHKVRPLLLFLLIVPFWTNSLIRIYGLKIFLSTKGYLNEFLLWLGVIDTPIRIMFTPSAVIIGLVYILLPFMVMPLYSSIEKLDKPLLEAARDLGASKLQTFIRIIIPLTMPGIIAGCLLVMLPAMGLFYVSDLMGGAKNLLIGNVIKVQFLNIRDWPFGAATSITLTIVMGLMLLVYWRASRLLNKKVELE
notes: PotB, transmembrane subunit, E. coli K12; the entire potABCD operon was cloned; Subunit of the PotABC complexes, written alone for the pairs within the solved complexes; source: E. coli C41, co-expressed and purified as part of the PotABC complex (Ni-NTA, SEC in LMNG; wild-type complex also in nanodiscs)
In the case of B1, the binding result in data set [1] is “binds”.

B2: PotC (natural protein, E. coli K12, UniProt P0AFK6 1-264, looked up)
chain: MIGRLLRGGFMTAIYAYLYIPIIILIVNSFNSSRFGINWQGFTTKWYSLLMNNDSLLQAAQHSLTMAVFSATFATLIGSLTAVALYRYRFRGKPFVSGMLFVVMMSPDIVMAISLLVLFMLLGIQLGFWSLLFSHITFCLPFVVVTVYSRLKGFDVRMLEAAKDLGASEFTILRKIILPLAMPAVAAGWVLSFTLSMDDVVVSSFVTGPSYEILPLKIYSMVKVGVSPEVNALATILLVLSLVMVIASQLIARDKTKGNTGDVK
notes: PotC, transmembrane subunit, E. coli K12; the entire potABCD operon was cloned; Subunit of the PotABC complexes, written alone for the pairs within the solved complexes; That the tag sits on PotC is surmised; source: E. coli C41, co-expressed and purified as part of the PotABC complex (Ni-NTA, SEC in LMNG; wild-type complex also in nanodiscs); not shown: His6 (inferred on PotC: C-terminal tag of …)
On to B2, for which the binding result in data set [1] is listed as “binds”.

B3: PotA (wild type) (natural protein, E. coli K12, UniProt P69874 1-378, looked up)
chain: MGQSKKLNKQPSSLSPLVQLAGIRKCFDGKEVIPQLDLTINNGEFLTLLGPSGCGKTTVLRLIAGLETVDSGRIMLDNEDITHVPAENRYVNTVFQSYALFPHMTVFENVAFGLRMQKTPAAEITPRVMEALRMVQLETFAQRKPHQLSGGQQQRVAIARAVVNKPRLLLLDESLSALDYKLRKQMQNELKALQRKLGITFVFVTHDQEEALTMSDRIVVMRDGRIEQDGTPREIYEEPKNLFVAGFIGEINMFNATVIERLDEQRVRANVEGRECNIYVNFAVEPGQKLHVLLRPEDLRVEEINDDNHAEGLIGYVRERNYKGMTLESVVELENGKMVMVSEFFNEDDPDFDHSLDQKMAINWVESWEVVLADEEHK
notes: PotA, cytosolic ATPase subunit, E. coli K12; the entire potABCD operon was cloned; Subunit of the wild-type PotABC complex solved in nanodiscs
For the molecule B3, in data set [2], the binding result is listed as “binds”.

B4: PotA E173Q (natural protein, E. coli K12, UniProt P69874 1-378, looked up)
chain: B3 chain with E173Q
notes: PotA, cytosolic ATPase subunit (NBD and regulatory domain), E. coli K12; the entire potABCD operon was cloned; Subunit of m1, written alone for the pairs within the solved complexes; source: E. coli C41, co-expressed and purified as part of the PotABC E173Q complex (Ni-NTA, SEC in LMNG)
Consider B4, for which the “stoichiometry N” value in data set [3] worked out at 2.

The values are drawn from paper PMC11414716, “Structural insights into polyamine spermidine uptake by the ABC transporter PotD-PotABC” (Science Advances, 2024).
